{"source": "patent US20160008398A1", "about": "“CONSTITUTIVE EXPRESSION OF COSTIMULATORY LIGANDS ON ADOPTIVELY TRANSFERRED T LYMPHOCYTES” (Memorial Sloan-Kettering Cancer Center, published 2016)", "binders": {"B1": {"name": "CD80 (ligand)", "chain": "VIHVTKEVKEVATLSCGHNVSVEELAQTRIYWQKEKKMVLTMMSGDMNIWPEYKNRTIFDITNNLSIVILALRPSDEGTYECVVLKYEKDAFKREHLAEVTLSVKADFPTPSISDFEIPTSNIRRIICSTSGGFPEPHLSWLENGEELNAINTTVSQDPETELYAVSSKLDFNMTTNHSFMCLIKYGHLRVNQTFNWNTTKQEHFPDNLLPSWAITLISVNGIFVICCLTYCFAPRCRERRRNERLRRESVRPV"}}, "biological_target": "CD28 (human, UniProt P10747)", "assay": "cell-based or functional assay"}
{"binder": "B1", "values": [{"measurement": "Granzyme B recruitment to T-cell tumor cell junctions", "value": 2.2, "unit": "fold"}, {"measurement": "NF-kB-luciferase signal in single OKT3-stimulated Jurkat T cells", "value": 3.8, "unit": "fold"}, {"measurement": "expansion of CAR-transduced T cells stimulated weekly on LNCaP tumor monolayers", "value": "~2", "unit": "fold"}, {"measurement": "expansion of CMV pp65-specific T cells restimulated with HLA-A*0201^+ pp65-transduced Caco-2 cells", "value": 209, "unit": "fold"}, {"measurement": "expansion of Pz1^+ T cells cocultured weekly with LNCaP tumor monolayers", "value": 1040, "unit": "fold enrichment"}, {"measurement": "expansion of T cells stimulated weekly with plate-bound OKT3", "value": "237 fold greater proliferation"}, {"measurement": "in vivo expansion of Pz1^+ T cells in PC3-PSMA tumor bearing mice (bioluminescence)", "value": 41, "unit": "fold higher photon count"}]}
